Molecular target: T1, HA-ASK1 (Apoptosis Signal-regulating Kinase 1) (UniProt Q99683 1-1374)
T1 sequence (looked up): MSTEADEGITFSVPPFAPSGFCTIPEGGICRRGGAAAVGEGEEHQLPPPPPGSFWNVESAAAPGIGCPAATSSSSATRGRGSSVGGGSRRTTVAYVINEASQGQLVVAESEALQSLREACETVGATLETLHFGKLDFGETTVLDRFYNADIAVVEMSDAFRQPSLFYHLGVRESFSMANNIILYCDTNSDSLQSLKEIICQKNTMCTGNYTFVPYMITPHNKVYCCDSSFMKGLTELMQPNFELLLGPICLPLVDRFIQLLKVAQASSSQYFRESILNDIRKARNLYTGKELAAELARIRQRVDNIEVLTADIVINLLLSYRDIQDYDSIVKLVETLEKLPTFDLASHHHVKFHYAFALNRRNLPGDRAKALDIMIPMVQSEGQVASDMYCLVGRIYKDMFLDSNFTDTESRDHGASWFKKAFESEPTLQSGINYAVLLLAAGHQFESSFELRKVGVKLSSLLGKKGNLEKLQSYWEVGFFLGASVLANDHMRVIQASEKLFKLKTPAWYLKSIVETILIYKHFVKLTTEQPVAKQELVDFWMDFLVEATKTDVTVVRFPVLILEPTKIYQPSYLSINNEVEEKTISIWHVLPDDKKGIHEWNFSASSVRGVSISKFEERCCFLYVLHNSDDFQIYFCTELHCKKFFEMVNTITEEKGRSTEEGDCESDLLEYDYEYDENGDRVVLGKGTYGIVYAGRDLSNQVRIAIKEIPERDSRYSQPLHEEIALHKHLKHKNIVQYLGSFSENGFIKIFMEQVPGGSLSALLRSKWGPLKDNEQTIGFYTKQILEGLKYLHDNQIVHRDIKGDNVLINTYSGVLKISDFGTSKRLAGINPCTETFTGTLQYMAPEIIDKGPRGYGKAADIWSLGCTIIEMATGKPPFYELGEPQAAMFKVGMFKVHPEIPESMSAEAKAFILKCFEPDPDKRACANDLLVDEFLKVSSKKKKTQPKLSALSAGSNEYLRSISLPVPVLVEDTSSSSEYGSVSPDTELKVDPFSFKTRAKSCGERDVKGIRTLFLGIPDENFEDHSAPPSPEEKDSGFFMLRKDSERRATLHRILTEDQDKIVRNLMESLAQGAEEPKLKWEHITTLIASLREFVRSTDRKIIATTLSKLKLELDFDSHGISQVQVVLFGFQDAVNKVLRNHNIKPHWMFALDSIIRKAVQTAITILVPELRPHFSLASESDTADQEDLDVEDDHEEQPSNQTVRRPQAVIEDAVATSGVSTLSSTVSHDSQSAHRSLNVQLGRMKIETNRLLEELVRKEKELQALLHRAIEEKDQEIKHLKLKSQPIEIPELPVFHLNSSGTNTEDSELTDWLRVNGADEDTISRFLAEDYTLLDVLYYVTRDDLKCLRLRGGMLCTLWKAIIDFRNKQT
Assay: co-IP

B1: arrestin-3-(1–366) fragment (expressed in COS7 cells) (domain or fragment, bovine, UniProt P32120-2 1-366, looked up)
chain: MGEKPGTRVFKKSSPNCKLTVYLGKRDFVDHLDKVDPVDGVVLVDPDYLKDRKVFVTLTCAFRYGREDLDVLGLSFRKDLFIANYQAFPPTPNPPRPPTRLQERLLRKLGQHAHPFFFTIPQNLPCSVTLQPGPEDTGKACGVDFEIRAFCAKSLEEKSHKRNSVRLVIRKVQFAPEKPGPQPSAETTRHFLMSDRSLHLEASLDKELYYHGEPLNVNVHVTNNSTKTVKKIKVSVRQYADICLFSTAQYKCPVAQVEQDDQVSPSSTFCKVYTITPLLSNNREKRGLALDGKLKHEDTNLASSTIVKEGANKEVLGILVSYRVKVKLVVSRGGDVSVELPFVLMHPKPHDHIALPRPQSAAPETD
binding relative to WT arrestin-3: ~0.33 of WT

Reference: article PMC6321783 (Cellular signalling, 2018)
